# From the nanobody polyreactivity screen of Harvey et al. (2022)
# Assay: yeast display, Sf9 membrane polyspecificity reagent, FACS + sequencing; frameworks hold sequencing errors
# Procedure, shortened: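 Polyreactivity labels are assigned by the sorting gate from which each nanobody was recovered. The gates were low and high (top ~1%), set on anti-HA fluorescence for expression and streptavidin fluorescence for reagent binding. Before sorting, galactose-induced (36–48 hours) yeast display cells were stained for 1 hour at 4 °C with 10% biotinylated, detergent-solubilized Sf9 membrane reagent.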
row,Sequence,polyreactivity (PSR sort gate)
1,QVQLVESGGGLVQAGGSLRLSCAASGLTFTTYAMGWYRQAPWKERELVAAISRSGGRTYYADSVKGRFTISRDNAKNTVYLHMNSLKPEDTAVYYCNVKGHVLEYYWGQGTQVTVSS,high polyreactivity
2,QVKLVESGGGLDQAGGSLRLSCAASGRTFGSYTMGWYRQAPGKERELVAAITSGGRTNYADSVKGRFTISRDNAKNTVYLQMNSLKPEDTAVYYCAAGWRGGRYRYFAYDYWGQGTQVTVSS,high polyreactivity
3,QVHLVESGGCLVQAGGSLRLSCAASGITFRWYAMGWYILAPGKERELVSSIDGRGASTYADSVKGRFTSSRDNAKNTVYLQMNSLKPEDSAVYYCAVAQVRVSYLWVRKFYYWGQGTQVTVSS,high polyreactivity
4,QVQLVESGGGLVQAGGSLRFSCAASGFTFVYNAMGWYRQAPGKERELVARISVSGGSTYYADSVKGRFTISRDNAKNTVYLQMNSLKPEDTAVYYCAAELSAPQPDYQQKVDYYYWGQGTQVTVSS,low polyreactivity
5,QVQLVESGGGLVQAGGSLRLSCAASGRIFSAYAMGWYRQAPGKEREFVAAISSRGGSTNYADSVKGRFTISRDNANNTVYLHMNSLKPEDTAVYYCNARYVQWYWIGKVIHIDNDYWGQGTQVNVSS,low polyreactivity
6,QVQLVESGGGLVQAGGSLRLSCAASGSIFEYNGMGWSRQAPGKERELVAAITTTGTTDYADSVKGRFTISRDNAKNTVYLQMNSLKPEDTAVYYCAADYTYYYKGEYDYWGQGTQVTVSS,low polyreactivity
7,QVQLVESGGGLVQAGGSLRLSCAASGSIFLPNAMGWYRQAPGKEWELVAAISWSGGSTYADSVKGRFTISRDNAKNTVYLQMNSLKPEDTAVYYCAADDGFTPRDLYVGYDYWGLGTQVTVSS,low polyreactivity
8,QVQLVESGGGLVQAGGSLRLSCAASGRIFSHNAMGWYRQAPGKERELVAAITGSGGTTYYADSVKGRFKISRDNAKNTVYLQMNSLKPEDTAVYYCAADWQQLSYVWRSQRRYNYWGQGTQVTVSS,low polyreactivity
9,QVQLVESGGGLVQAGGSLRLSCAASGSTFRYYAKGWYRQAPGKERELVAAIAAGSNTNYADSVKGRFTISRDNAKNTVYLQMNSVKPEDTAVFYCAVASYARVQYEYWGQGTQVTVNS,low polyreactivity
10,QVQLVESGGGLVQAGGSLRLSCAASGSTFGPYAMGWYRQAPGKERELVAAIDKSGGSTYYADSVKGRFTISRDNAKNTVYLQMNSLKPEDTAVYYCAVEKRYPRRRYDYWGQGTQVTVSS,low polyreactivity
11,QVQLVESGGGLVQAGGSLRLSCAASGLTFPYNAMGWYRQAPGKERELVAAISNGGGTYYADSVKGRFTISRDNAKNPVYLQMNSLKPEDTAVYYCAVDEYSRDYWRYYYWGQGTQVTVSS,low polyreactivity
12,QVQLVESGGGLVQAGGSLRLSCADSGSIFRRNAMGWYRQAPGKERELVAGIRGSGGSTYYADSVKGRFTISRDNAKNTVYLQMNSLKPEDTAVYYCAARRSYYHGSYDYWGQGTQVTVSS,high polyreactivity
13,QVQLVESGGGLVQAGGSLRLICAASGSTFPPNAMGWYRQAPGKERELVAAISKRGGSTTYSDSVKGRFTISRDYAKNTVYLQMNSLIPEDTAVYYCAARRSGRSHYEKMDYWGQGTQVSVSS,low polyreactivity
14,QVQLVESGGGLVQAGGSLRLSCAASGRTFWRYVMGWYRQAPGKERELVASITRSGGTTNYADSVKGRFTISRDIAKNTVYLQMNSLKPEDTAVYYCNARTVYSWSREYNYWGQGTQVTVSS,high polyreactivity
15,QVQLVESGGGLVQAGGSLRLSCAASGSTFYQYAMGWYRQAPGKERELVARITYNGGRTYYADSVKGRFTISRDNAKNTVYLQMNSLKPEDTAVYYCAARRWSTGGYGQFDYWGQGTQVTVSS,low polyreactivity
16,QVQLVESGGGLVQAGGSLRLSCAASGSTFFNYAMGLYRQAPGKERELVAAITSVGSTYYADSVKGRFTISRDNAKYTVYLQMNSLKPEDTAVYYCNAESYFWDFYDYDHWGQGTQVTVSS,low polyreactivity
